Where a chain is given by its changes, count along the chain named. Names may count otherwise.
Tests used:
Msr1^hu/hu ApoE^−/− mice = experiment: In vivo LPS-induced cytokine production in serum; design: species or system mouse; conditions: 24 hours before in vivo LPS
Experimental: To examine the anti-inflammatory effect of the anti-MSR1 antibody-steroid conjugates, an ex-vivo and in vivo LPS-induced inflammatory immune response model was performed.
Generation of a mouse inflammatory immune response model. Mice homozygously expressing human MSR1 extracellular domain in place of the mouse MSR1 extracellular domain and with a homozygous deletion of the ApoE gene were utilized (resulting mice referred to as Msr1^hu/hu ApoE^−/− mice).
(§1) Assay protocol for in vivo LPS-induced responses. In in vivo LPS challenge experiments, mice were intraperitoneally administered with 10 μL/g of decreasing concentrations of anti-MSR1 antibody-steroid conjugates (H1H21234N-N297Q-LP13) and isotype control steroid conjugate (Isotype control-N297Q-LP13) at 24 hours prior to in vivo LPS challenge. PBS and free steroid P4 were intraperitoneally injected at 2 hours prior to in vivo LPS challenge. At 0 hour time point, three large drops of blood (volume ˜ 100 μL) were collected from the maxillary vein of each mouse into serum gel separator tubes. The tubes were centrifuged at 2200-2500 rpm for 15 minutes, and the serum was collected into 96-well plates for subsequent measurement of cytokines. At 18 hours post in vivo LPS challenge, the peritoneal cells were obtained from periotenal cavity as aforementioned for subsequent flow cytometry analysis.

[1] = system: Msr1^hu/hu ApoE^−/− mice, peritoneal macrophages; experiment: LPS-mediated expression of CD80 on peritoneal macrophages (flow cytometry); type: in vivo, mouse; conditions: for LPS-mediated expression of CD80, pMΦ Cells: hMSR1+F4/80+CD11b+ peritoneal macrophages; for LPS-mediated expression of CD80, non-pMΦ Cells: hMSR1−F4/80−CD11b− cells
Experimental: Assay protocol for ex vivo LPS-induced responses. In ex vivo LPS challenge experiments, mice were intraperitoneally administered with 10 μL/g of anti-MSR1 antibody-steroid conjugates (H1H21234N-N297Q-LP13), isotype control steroid conjugate (Isotype control-LP13), unconjugated anti-MSR1 antibody (H1H21234N-N297Q) and isotype control antibodies at different time points (24, 48, and 72 hours) prior to harvesting the peritoneal cells from peritoneal cavity. […] All mice were sacrificed at 0 hour time point and peritoneal cells were obtained from the peritoneum by the peritoneal lavage technique. In brief, 5 mL of ice cold 1×PBS (ThermoFisher Scientific, Cat #20012027) containing 2% BSA (Gibco, Cat #A9576) and 0.6 mM EDTA (ThermoFisher Scientific, Cat #15575020) were injected into the peritoneal cavity using 27 g needle. […] The resuspended cells were plated at 500,000 cells per well in 24-well tissues culture plates and incubated with or without 10 ng/mL of LPS for 18 hours.
as §1
Analysis of expression of activation markers on peritoneal macrophages after LPS ex vivo challenge. Upon collection of supernatants for cytokine analysis, the plates were washed twice with 1×PBS w/o Ca^++/Mg2^++ (ThermoFisher Scientific, Cat #14190144), and the adherent peritoneal cells were harvested by addition of 250-300 μL of cold Macrophage Detachment Solution DXF (PromoCell, Cat #C41330) for 40 minutes. The detached cells were collected into 50-mL tubes and centrifuged at 350×g for 15 minutes. After two washes with 1×PBS supplemented with 2 mM EDTA, the cells were resuspended in Cell Staining Buffer (Biolegend, #420201) and plated at 1×10^6 cells per well in a 96-well V bottom plate. Cells were centrifuged and cell pellets were resuspended in 100 μL of LIVE/DEAD Blue Fluorescent Reactive Dye (Life Technologies, Cat #L34962) diluted at 1:600 in 1×PBS to determine cell viability. Cells were incubated at room temperature for 20 minutes in dark. After one wash with 1×PBS, cells were incubated in Cell Staining Buffer containing 10 μg/mL of purified rat anti-mouse CD16/CD32 Fc Block (Clone: 2.4G2; BD Biosciences, Cat #553142) for 10 minutes at 4° C. The cells were washed once and incubated in the appropriate antibody mixture diluted in Brilliant Stain Buffer (BD Biosciences, Cat #566345) for 30 minutes at 4° C. in dark. The cells were subsequently washed with 1×PBS, resuspended in Cell Staining Buffer and acquired on FACS LSRFortessa X-20 flow cytometer (Becton Dickinson). Data were analyzed using FlowJo (Tree Star).

[2] = target: T1, Ox-LDL binding to His9-hMSR1 (Homo sapiens, UniProt P21757); experiment: Competition sandwich ELISA, blocking of Ox-LDL binding; conditions: antibody 500 nM, Ox-LDL 10 nM
T1 construct: human MSR1 extracellular domain expressed with a N-terminal nonahistidine tag; His9 (nonahistidine) (N); purchased R&D Systems 2708-MS
T1 sequence (P21757 77-451 limits assumed): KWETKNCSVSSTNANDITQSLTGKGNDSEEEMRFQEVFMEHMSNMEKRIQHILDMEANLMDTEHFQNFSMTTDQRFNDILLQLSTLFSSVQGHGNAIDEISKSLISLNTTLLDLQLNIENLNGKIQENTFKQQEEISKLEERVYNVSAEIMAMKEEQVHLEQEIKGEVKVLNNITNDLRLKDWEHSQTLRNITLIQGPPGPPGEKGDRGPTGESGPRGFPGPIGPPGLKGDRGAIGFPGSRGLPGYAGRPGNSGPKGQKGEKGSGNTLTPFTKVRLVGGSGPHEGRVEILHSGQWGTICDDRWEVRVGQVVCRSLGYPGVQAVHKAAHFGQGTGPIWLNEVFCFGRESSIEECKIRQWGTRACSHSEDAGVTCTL
Experimental: The ability of anti-MSR1 antibodies disclosed herein to block the binding of various ligands to human MSR1 was measured using three competition sandwich ELISA assays. The ligands used in the assays were: (1) acetylated LDL (Ac-LDL), (2) oxidized LDL (Ox-LDL), and (3) advanced glycation end-products of bovine serum albumin (AGE-BSA).
Anti-MSR1 antibodies or isotype control antibodies were serially diluted as appropriate for each tested ligand and added in duplicate for each serial dilution set to microtiter plates coated with His9-hMSR1. Buffer alone was also added to wells on each coat. […] This assay was conducted in four different assay runs.
Data analysis was performed using a sigmoidal dose-response model within Prism™ software (GraphPad). Percent blockade at maximum concentration of the antibody tested in each assay was calculated as an indicator of the ability of the antibodies to block the binding of Ac-LDL, Ox-LDL or biot-AGE-BSA to His9-hMSR1 on the plate relative to the baseline of the assay. In the calculation, binding signal of the same concentrations of Ac-LDL, Ox-LDL, or biot-AGE-BSA used for the assays in the absence of antibody was referenced as 100% binding or 0% blocking, while the baseline of the assay, defined as binding signal of the sample of buffer without MSR1 ligands or antibody, was referenced as 0% binding or 100% blocking. The maximum percent blockade at the highest concentration of antibody tested in each assay are reported for all antibodies.

B1: H1H21234N-N297Q-LP13 (conjugate)
VH: QVQLQESGPGLVKPSETLSLTCTVTGGSISRNYWSWIRQPPGKGLEWIGYIYYSGSIDYNPSLKSRVTISVDTSKNQFSLKLSSMTAADTAVYYCARDRWNWKYGMDVWGQGTTVIVSS
VL: EIVLTQSPGTLSLSPGERATLSCRASQTVRNNYLAWYHQKPGQAPRLLIYGASSRATGIPDRFSGSGSGTDFTLTISRLEPEDFTVYYCHQYGNSPWTFGQGTKMEIKR
Cytokine IL-6 in serum (Msr1^hu/hu ApoE^−/− mice; 10.67 mg/kg): 33 ± 8.1 ng/mL | Cytokine KC-GRO in serum (Msr1^hu/hu ApoE^−/− mice; 10.67 mg/kg): 13.3 ± 1.2 ng/mL | Cytokine TNF-α in serum (Msr1^hu/hu ApoE^−/− mice; 10.67 mg/kg): 0.51 ± 0.08 ng/mL | Cytokine IL-6 in serum (Msr1^hu/hu ApoE^−/− mice; 32.03 mg/kg): 15.34 ± 5.2 ng/mL | Cytokine KC-GRO in serum (Msr1^hu/hu ApoE^−/− mice; 32.03 mg/kg): 10.6 ± 2.8 ng/mL | Cytokine TNF-α in serum (Msr1^hu/hu ApoE^−/− mice; 32.03 mg/kg): 0.48 ± 0.18 ng/mL | Cytokine IL-6 in serum (Msr1^hu/hu ApoE^−/− mice; 96.08 mg/kg): 7.7 ± 3.1 ng/mL | Cytokine KC-GRO in serum (Msr1^hu/hu ApoE^−/− mice; 96.08 mg/kg): 5.1 ± 1.5 ng/mL | Cytokine TNF-α in serum (Msr1^hu/hu ApoE^−/− mice; 96.08 mg/kg): 0.42 ± 0.14 ng/mL | LPS-mediated expression of CD80, pMΦ Cells ([1]; administered 24 hours before): 61.1 ± 1.3 % relative to PBS/LPS-treatment | LPS-mediated expression of CD80, non-pMΦ Cells ([1]; administered 24 hours before): 95.5 ± 2.6 % relative to PBS/LPS-treatment | LPS-mediated expression of CD80, pMΦ Cells ([1]; administered 48 hours before): 58.7 ± 4.2 % relative to PBS/LPS-treatment | LPS-mediated expression of CD80, non-pMΦ Cells ([1]; administered 48 hours before): 99 ± 1.8 % relative to PBS/LPS-treatment | LPS-mediated expression of CD80, pMΦ Cells ([1]; administered 72 hours before): 63.9 ± 1.01 % relative to PBS/LPS-treatment | LPS-mediated expression of CD80, non-pMΦ Cells ([1]; administered 72 hours before): 102.3 ± 0.14 % relative to PBS/LPS-treatment | LPS-mediated expression of CD80 on hMSR1^+F4/80^+CD11b^+ peritoneal macrophages (pMΦ) ([1]; in vivo administration): significant reduction

B2: H1H21227N-N297Q: "modified versions of 21227N (H1H21227N-N297Q and H1H21227N-N297D)"; anti-MSR1 antibody "with a N297Q single point mutation" (antibody, V domains shown)
VH: QVQLVQSGAEVKKPGASVKVSCKVSGYTLTELSIHWVRQVPGKGLEWMGGFDPEEGETIFAQEFRDRVTLTEDTSPDTAYMELSSLKSEDAAVYYCTTPRYCNNGICYDYWGQGTLVTVSS
VL: DIQMTQSPSSLSASVGDRVTITCRASQSISNYLNWYQQKPGKAPKLLIYTASSLQSGVPSRFSGSGSGTDFTLTISSLQTEDFATYYCQQSYSNFPITFGQGTRLEIKR
anti-MSR1 antibody blocking of Ox-LDL binding to His9-hMSR1 % Blocking [2]: 97%

B3: H1H21231N: "anti-MSR1 antibodies ... (21227N, 21231N, 21234N) were produced with the original human Fcγ portion"; "H1H" = human IgG1 Fc (antibody, V domains shown)
VH: EVQLVESGGGLVQPGGSLRLSCAASGFTFSDHYMDWVRQAPGKGLEWVGRTRNKANSHTTEYTASVTGRFTISRDDSRNSLYLQMNSLKTEDTAVYYCVRAGIIGTLFDYWGQGTLVTVSS
VL: B2 VL with S7F, N31S, Y32F, Y36F, L46F, T50A, T80P, N94S, F95P
modifications: human IgG1 Fc
notes: "anti-MSR1 antibodies ; (21227N, 21231N, 21234N) were produced with the original human Fcγ portion"; "H1H" = human IgG1 Fc
anti-MSR1 antibody blocking of Ox-LDL binding to His9-hMSR1 % Blocking [2]: 22%

B4: H1H21227N: "anti-MSR1 antibodies ... (21227N, 21231N, 21234N) were produced with the original human Fcγ portion"; "H1H" = human IgG1 Fc (antibody, V domains shown)
VH: B2 VH
VL: B2 VL
modifications: human IgG1 Fc
notes: as for B3
anti-MSR1 antibody blocking of Ox-LDL binding to His9-hMSR1 % Blocking [2]: 100%

B5: H1H21231N-N297Q: modified version of "21231N (H1H21231N-N297Q) anti-MSR1 antibodies" with "a N297Q single point mutation" (antibody, V domains shown)
VH: B3 VH
VL: B2 VL with S7F, N31S, Y32F, Y36F, L46F, T50A, T80P, N94S, F95P
anti-MSR1 antibody blocking of Ox-LDL binding to His9-hMSR1 % Blocking [2]: 26%

B6: H1H21227N-N297D: "The 21227N antibody was also produced as a third version with a N297D mutation" (antibody, V domains shown)
VH: B2 VH
VL: B2 VL
anti-MSR1 antibody blocking of Ox-LDL binding to His9-hMSR1 % Blocking [2]: 99%

Source: patent US12497460B2, “Anti-MSR1 antibodies and methods of use thereof” (REGENERON PHARMACEUTICALS, INC., priority 2018, dated 2025)
